Data: patent US20220010021A1 (Sanofi, published 2022)
Where a chain is given by its changes, count along the chain named. In names and notes the source's numbering stands. One block for each binder: values may come before it.

How the values were obtained:
[1] = biological target: human FGFR1c + KLB receptor complex on HEK293 iLite FGF21 reporter cells (human, UniProt P11362 22-822; Q86Z14 1-1044); assay: cell-based or functional assay
[2] = biological target: cell surface receptor composed of FGFR1c and co-receptor beta-Klotho (KLB) (human, UniProt P11362 22-822; Q86Z14 1-1044); assay: cell-based or functional assay; on Mean E max, Luciferase reporter gene assay: reference of the scale not given here
cell surface receptor composed of FGFR1c and co-receptor beta-Klotho (KLB), sequence (P11362 22-822, chain 1 of 2): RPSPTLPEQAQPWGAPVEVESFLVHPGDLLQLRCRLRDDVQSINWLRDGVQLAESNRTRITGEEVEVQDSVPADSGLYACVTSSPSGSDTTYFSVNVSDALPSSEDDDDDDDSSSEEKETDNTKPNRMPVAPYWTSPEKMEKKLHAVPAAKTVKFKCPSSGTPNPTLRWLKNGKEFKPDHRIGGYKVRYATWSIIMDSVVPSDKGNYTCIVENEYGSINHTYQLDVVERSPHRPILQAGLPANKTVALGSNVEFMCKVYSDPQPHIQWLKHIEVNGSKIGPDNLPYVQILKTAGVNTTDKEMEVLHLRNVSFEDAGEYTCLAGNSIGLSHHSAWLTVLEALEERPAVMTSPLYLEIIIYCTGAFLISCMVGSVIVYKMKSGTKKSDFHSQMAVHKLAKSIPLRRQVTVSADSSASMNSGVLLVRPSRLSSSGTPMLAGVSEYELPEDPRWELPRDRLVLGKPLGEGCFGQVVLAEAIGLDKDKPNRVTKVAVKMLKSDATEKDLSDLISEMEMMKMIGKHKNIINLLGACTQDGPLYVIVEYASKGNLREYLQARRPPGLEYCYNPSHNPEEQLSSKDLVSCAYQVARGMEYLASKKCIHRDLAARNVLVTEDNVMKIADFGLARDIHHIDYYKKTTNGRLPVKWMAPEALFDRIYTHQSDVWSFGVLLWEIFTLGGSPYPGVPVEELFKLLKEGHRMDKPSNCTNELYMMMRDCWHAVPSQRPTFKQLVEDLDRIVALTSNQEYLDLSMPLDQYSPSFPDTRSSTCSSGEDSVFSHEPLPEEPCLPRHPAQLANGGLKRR
cell surface receptor composed of FGFR1c and co-receptor beta-Klotho (KLB), sequence (Q86Z14 whole entry, chain 2 of 2): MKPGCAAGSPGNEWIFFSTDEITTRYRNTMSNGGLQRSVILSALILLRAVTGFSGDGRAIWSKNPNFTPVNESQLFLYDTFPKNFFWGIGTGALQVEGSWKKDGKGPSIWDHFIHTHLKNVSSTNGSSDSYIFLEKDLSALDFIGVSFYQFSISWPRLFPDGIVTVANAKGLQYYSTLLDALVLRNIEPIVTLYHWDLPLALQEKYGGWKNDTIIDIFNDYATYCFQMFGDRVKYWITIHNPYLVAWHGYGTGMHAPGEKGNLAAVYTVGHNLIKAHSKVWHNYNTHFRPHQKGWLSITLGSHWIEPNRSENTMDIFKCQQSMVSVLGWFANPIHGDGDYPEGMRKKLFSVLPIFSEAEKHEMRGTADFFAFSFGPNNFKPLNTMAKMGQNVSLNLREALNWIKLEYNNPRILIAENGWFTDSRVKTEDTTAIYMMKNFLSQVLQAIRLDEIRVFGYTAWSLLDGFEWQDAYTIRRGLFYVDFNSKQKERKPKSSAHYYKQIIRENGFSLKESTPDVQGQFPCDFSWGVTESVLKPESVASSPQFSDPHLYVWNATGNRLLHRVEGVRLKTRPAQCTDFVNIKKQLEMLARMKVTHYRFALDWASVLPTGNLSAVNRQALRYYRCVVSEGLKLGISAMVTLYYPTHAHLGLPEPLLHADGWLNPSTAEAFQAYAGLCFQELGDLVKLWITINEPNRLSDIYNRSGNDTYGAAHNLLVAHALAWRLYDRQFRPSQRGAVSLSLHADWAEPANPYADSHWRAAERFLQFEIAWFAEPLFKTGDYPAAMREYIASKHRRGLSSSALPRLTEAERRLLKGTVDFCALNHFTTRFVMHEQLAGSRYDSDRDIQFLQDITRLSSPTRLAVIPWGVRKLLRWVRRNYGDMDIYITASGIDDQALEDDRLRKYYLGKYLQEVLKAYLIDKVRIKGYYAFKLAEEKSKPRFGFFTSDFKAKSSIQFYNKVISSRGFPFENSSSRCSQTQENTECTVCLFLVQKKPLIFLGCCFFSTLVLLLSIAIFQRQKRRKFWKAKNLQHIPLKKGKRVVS

human FGFR1c + KLB receptor complex on HEK293 iLite FGF21 reporter cells, sequence (P11362 22-822, chain 1 of 2): as the sequence (P11362 22-822, chain 1 of 2) above
human FGFR1c + KLB receptor complex on HEK293 iLite FGF21 reporter cells, sequence (Q86Z14 whole entry, chain 2 of 2): as the sequence (Q86Z14 whole entry, chain 2 of 2) above

EC50 [1]: 0.03 nM
Emax [1]: 1100%
B2: Ab0430 (antibody, human IgG1, lambda)
heavy: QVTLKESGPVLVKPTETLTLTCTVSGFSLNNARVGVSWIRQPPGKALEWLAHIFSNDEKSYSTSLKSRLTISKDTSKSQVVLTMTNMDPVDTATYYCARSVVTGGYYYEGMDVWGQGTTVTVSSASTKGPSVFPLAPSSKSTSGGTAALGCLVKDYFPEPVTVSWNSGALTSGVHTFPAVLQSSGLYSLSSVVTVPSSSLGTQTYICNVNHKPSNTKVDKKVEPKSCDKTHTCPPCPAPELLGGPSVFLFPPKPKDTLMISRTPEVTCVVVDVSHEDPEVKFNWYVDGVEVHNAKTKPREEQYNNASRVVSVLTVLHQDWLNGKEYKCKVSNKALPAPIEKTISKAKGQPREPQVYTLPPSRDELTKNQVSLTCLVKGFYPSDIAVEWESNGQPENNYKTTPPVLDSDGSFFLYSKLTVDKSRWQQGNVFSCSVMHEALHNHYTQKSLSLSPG
light: SYVLTQPPSVSVAPGQTARITCGGSNIGSESVHWYQQKPGQAPVLVVYEESDRPSGIPERFSGSNSGNTATLTISRVEAGDEADYYCQVWEGESDHVVFGGGTKLTVLGQPKANPTVTLFPPSSEELQANKATLVCLISDFYPGAVTVAWKADGSPVKAGVETTKPSKQSNNKYAASSYLSLTPEQWKSHRSYSCQVTHEGSTVEKTVAPTECS

EC50 [1]: 2.53 nM
Emax [1]: 550%
B4: Ab0359 (antibody, IgG4, V domains shown)
VH: QVTLKESGPVLVKPTETLTLTCTVSGFSLNNARVGVSWIRQPPGKALEWLAHIFSNDEKSYSTSLKSRLTISKDTSKSQVVLTMTNMDPVDTATYYCARSVVTGGYYYEGMDVWGQGTTVTVSS
VL: SYVLTQPPSVSVAPGQTARITCGGSNIGSESVHWYQQKPGQAPVLVVYEHSDRPSGIPERFSGSNSGNTATLTISRVEAGDEADYYCQVWAGSSDHVVFGGGTKLTVLG

EC50 [1]: 0.07 nM
Emax [1]: 1390%
B6: Ab0424 (antibody, IgG4, V domains shown)
VH: B4 VH
VL: B4 VL with E49S, H50S, A91H, S93A

Mean E max, Luciferase reporter gene assay [2]: 68%
Mean EC50, Luciferase reporter gene assay [2]: 2.19 nM
B7: 16H7 light chain variant H33R (antibody, IgG4, V domains shown)
VH: not shown
VL: B4 VL with S25N, H33R, E49D, H50D, A91D, S93N

Mean E max, Luciferase reporter gene assay [2]: 3%
B8: 16H7 light chain variant D95V (antibody, IgG4, V domains shown)
VH: not shown
VL: B4 VL with S25N, E49D, H50D, A91D, S93N, D95V

EC50 [1]: 0.04 nM
Emax [1]: 1110%
B10: Ab0459 (antibody, IgG4, V domains shown)
VH: B4 VH with N30S, N31Y
VL: B4 VL with E49S, H50A, A91E, S93E

Mean E max, Luciferase reporter gene assay [2]: 85%
Mean EC50, Luciferase reporter gene assay [2]: 0.164 nM
B13: 16H7 light chain variant V32P (antibody, IgG4, V domains shown)
VH: not shown
VL: B4 VL with S25N, V32P, E49D, H50D, A91D, S93N

EC50 [1]: 0.02 nM
Emax [1]: 1430%
B17: Ab0458 (antibody, IgG4, V domains shown)
VH: B4 VH with N30T
VL: B4 VL with E49S, H50A, A91E, S93E

Mean E max, Luciferase reporter gene assay [2]: 4%
B22: 16H7 light chain variant D95C (antibody, IgG4, V domains shown)
VH: not shown
VL: B4 VL with S25N, E49D, H50D, A91D, S93N, D95C

EC50 [1]: 0.85 nM
Emax [1]: 583%
B24: Ab0365 (antibody, IgG4, V domains shown)
VH: B4 VH
VL: B4 VL with S25A, E49T, H50E

Mean E max, Luciferase reporter gene assay [2]: 90%
Mean EC50, Luciferase reporter gene assay [2]: 0.253 nM
B25: 16H7 light chain variant H33P (antibody, IgG4, V domains shown)
VH: not shown
VL: B4 VL with S25N, H33P, E49D, H50D, A91D, S93N

Mean E max, Luciferase reporter gene assay [2]: -1%
B27: 16H7 light chain variant D95F (antibody, IgG4, V domains shown)
VH: not shown
VL: B4 VL with S25N, E49D, H50D, A91D, S93N, D95F

EC50 [1]: 0.03 nM
Emax [1]: 1390%
B28: Ab0454 (antibody, IgG4, V domains shown)
VH: B4 VH with N30T
VL: B4 VL with E49S, H50E, A91E, S93E

Mean E max, Luciferase reporter gene assay [2]: 4%
B29: 16H7 light chain variant D95R (antibody, IgG4, V domains shown)
VH: not shown
VL: B4 VL with S25N, E49D, H50D, A91D, S93N, D95R

EC50 [1]: 0.02 nM
Emax [1]: 1520%
B31: Ab0457 (antibody, IgG4, V domains shown)
VH: B4 VH with N30S
VL: B4 VL with E49S, H50A, A91E, S93E

EC50 [1]: 0.05 nM
Emax [1]: 1510%
B32: Ab0423 (antibody, IgG4, V domains shown)
VH: B4 VH
VL: B4 VL with E49S, H50S, A91E, S93A

Mean E max, Luciferase reporter gene assay [2]: 96%
Mean EC50, Luciferase reporter gene assay [2]: 0.174 nM
B37: 16H7 light chain variant H33K (antibody, IgG4, V domains shown)
VH: not shown
VL: B4 VL with S25N, H33K, E49D, H50D, A91D, S93N

Mean E max, Luciferase reporter gene assay [2]: 47%
Mean EC50, Luciferase reporter gene assay [2]: 6.56 nM
B38: 16H7 light chain variant D95G (antibody, IgG4, V domains shown)
VH: not shown
VL: B4 VL with S25N, E49D, H50D, A91D, S93N, D95G

Mean E max, Luciferase reporter gene assay [2]: 104%
Mean EC50, Luciferase reporter gene assay [2]: 0.185 nM
B40: 16H7 light chain variant S94K (antibody, IgG4, V domains shown)
VH: not shown
VL: B4 VL with S25N, E49D, H50D, A91D, S93N, S94K

Mean E max, Luciferase reporter gene assay [2]: 100%
Mean EC50, Luciferase reporter gene assay [2]: 0.106 nM
B41: 16H7 light chain variant D49A (antibody, IgG4, V domains shown)
VH: not shown
VL: B4 VL with S25N, E49A, H50D, A91D, S93N

The next lines start with the binder.

B1: Ab0428 (antibody, human IgG1, lambda)
heavy: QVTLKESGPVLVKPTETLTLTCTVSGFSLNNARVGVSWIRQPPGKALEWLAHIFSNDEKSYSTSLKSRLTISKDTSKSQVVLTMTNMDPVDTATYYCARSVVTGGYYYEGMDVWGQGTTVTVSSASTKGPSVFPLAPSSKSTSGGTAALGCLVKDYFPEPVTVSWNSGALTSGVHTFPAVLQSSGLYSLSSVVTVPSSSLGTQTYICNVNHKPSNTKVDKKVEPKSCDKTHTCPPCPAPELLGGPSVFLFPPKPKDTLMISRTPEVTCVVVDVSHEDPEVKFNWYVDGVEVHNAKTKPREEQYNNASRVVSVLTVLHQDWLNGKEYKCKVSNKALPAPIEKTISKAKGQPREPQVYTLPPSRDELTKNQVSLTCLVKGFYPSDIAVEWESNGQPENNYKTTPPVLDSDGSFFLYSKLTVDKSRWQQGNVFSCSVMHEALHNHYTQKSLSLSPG
light: B2 light with E49S
EC50 [1]: 0.03 nM
Emax [1]: 1280%

B3: Ab0429 (antibody, human IgG1, lambda)
heavy: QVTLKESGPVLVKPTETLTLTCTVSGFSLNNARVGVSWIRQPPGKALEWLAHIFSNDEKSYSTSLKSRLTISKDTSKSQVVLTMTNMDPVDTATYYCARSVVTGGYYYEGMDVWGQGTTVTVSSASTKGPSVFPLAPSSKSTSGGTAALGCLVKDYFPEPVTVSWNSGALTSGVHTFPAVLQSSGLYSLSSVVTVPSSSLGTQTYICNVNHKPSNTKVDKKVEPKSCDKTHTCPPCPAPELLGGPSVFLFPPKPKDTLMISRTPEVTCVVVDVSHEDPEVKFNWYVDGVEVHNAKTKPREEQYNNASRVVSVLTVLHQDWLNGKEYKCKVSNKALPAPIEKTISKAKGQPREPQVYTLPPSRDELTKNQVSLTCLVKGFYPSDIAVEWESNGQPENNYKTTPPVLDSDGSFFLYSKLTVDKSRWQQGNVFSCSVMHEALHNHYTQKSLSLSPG
light: B2 light with E49S, E50A
EC50 [1]: 0.04 nM
Emax [1]: 1290%

B5: Ab0462 (antibody, IgG4, V domains shown)
VH: B4 VH with N30T
VL: B4 VL with H50E, A91E, S93E
EC50 [1]: 0.03 nM
Emax [1]: 1340%

B9: Ab0463 (antibody, IgG4, V domains shown)
VH: B4 VH with N30S, N31Y
VL: B4 VL with H50E, A91E, S93E
EC50 [1]: 0.05 nM
Emax [1]: 951%

B11: Ab0453 (antibody, IgG4, V domains shown)
VH: B4 VH with N30S
VL: B4 VL with E49S, H50E, A91E, S93E
EC50 [1]: 0.03 nM
Emax [1]: 1400%

B12: Ab0456 (antibody, IgG4, V domains shown)
VH: B4 VH with N30T, N31Y
VL: B4 VL with E49S, H50E, A91E, S93E
EC50 [1]: 0.07 nM
Emax [1]: 1080%

B14: Ab0464 (antibody, IgG4, V domains shown)
VH: B4 VH with N30T, N31Y
VL: B4 VL with H50E, A91E, S93E
EC50 [1]: 0.02 nM
Emax [1]: 910%

B15: 16H7 light chain variant D49H (antibody, IgG4, V domains shown)
VH: not shown
VL: B4 VL with S25N, E49H, H50D, A91D, S93N
Mean E max, Luciferase reporter gene assay [2]: 90%
Mean EC50, Luciferase reporter gene assay [2]: 0.183 nM

B16: 16H7 light chain variant D95E (antibody, IgG4, V domains shown)
VH: not shown
VL: B4 VL with S25N, E49D, H50D, A91D, S93N, D95E
Mean E max, Luciferase reporter gene assay [2]: 44%
Mean EC50, Luciferase reporter gene assay [2]: 8.04 nM

B18: Ab0461 (antibody, IgG4, V domains shown)
VH: B4 VH with N30S
VL: B4 VL with H50E, A91E, S93E
EC50 [1]: 0.02 nM
Emax [1]: 1390%

B19: Ab0362 (antibody, IgG4, V domains shown)
VH: B4 VH
VL: B4 VL with E49T, H50E
EC50 [1]: 11.6 nM
Emax [1]: 662%

B20: Ab0363 (antibody, IgG4, V domains shown)
VH: B4 VH
VL: B4 VL with S25A, E49S, H50A, S93A
EC50 [1]: 0.48 nM
Emax [1]: 736%

B21: 16H7 light chain variant D95W (antibody, IgG4, V domains shown)
VH: not shown
VL: B4 VL with S25N, E49D, H50D, A91D, S93N, D95W
Mean E max, Luciferase reporter gene assay [2]: 5%

B23: 16H7 light chain variant D95N (antibody, IgG4, V domains shown)
VH: not shown
VL: B4 VL with S25N, E49D, H50D, A91D, S93N, D95N
Mean E max, Luciferase reporter gene assay [2]: 78%
Mean EC50, Luciferase reporter gene assay [2]: 1.03 nM

B26: 16H7 light chain variant D49Y (antibody, IgG4, V domains shown)
VH: not shown
VL: B4 VL with S25N, E49Y, H50D, A91D, S93N
Mean E max, Luciferase reporter gene assay [2]: 99%
Mean EC50, Luciferase reporter gene assay [2]: 0.151 nM

B30: 16H7 light chain variant D49E (antibody, IgG4, V domains shown)
VH: not shown
VL: B4 VL with S25N, H50D, A91D, S93N
Mean E max, Luciferase reporter gene assay [2]: 87%
Mean EC50, Luciferase reporter gene assay [2]: 0.193 nM

B33: Ab0455 (antibody, IgG4, V domains shown)
VH: B4 VH with N30S, N31Y
VL: B4 VL with E49S, H50E, A91E, S93E
EC50 [1]: 0.07 nM
Emax [1]: 1020%

B34: 16H7 light chain variant H33W (antibody, IgG4, V domains shown)
VH: not shown
VL: B4 VL with S25N, H33W, E49D, H50D, A91D, S93N
Mean E max, Luciferase reporter gene assay [2]: 80%
Mean EC50, Luciferase reporter gene assay [2]: 0.666 nM

B35: 16H7 light chain variant D49N (antibody, IgG4, V domains shown)
VH: not shown
VL: B4 VL with S25N, E49N, H50D, A91D, S93N
Mean E max, Luciferase reporter gene assay [2]: 108%
Mean EC50, Luciferase reporter gene assay [2]: 0.19 nM

B36: Ab0460 (antibody, IgG4, V domains shown)
VH: B4 VH with N30T, N31Y
VL: B4 VL with E49S, H50A, A91E, S93E
EC50 [1]: 0.05 nM
Emax [1]: 1050%

B39: 16H7 light chain variant D95P (antibody, IgG4, V domains shown)
VH: not shown
VL: B4 VL with S25N, E49D, H50D, A91D, S93N, D95P
Mean E max, Luciferase reporter gene assay [2]: 4%

B42: 16H7 light chain variant D95S (antibody, IgG4, V domains shown)
VH: not shown
VL: B4 VL with S25N, E49D, H50D, A91D, S93N, D95S
Mean E max, Luciferase reporter gene assay [2]: 37%

B43: 16H7 light chain variant D50K (antibody, IgG4, V domains shown)
VH: not shown
VL: B4 VL with S25N, E49D, H50K, A91D, S93N
Mean E max, Luciferase reporter gene assay [2]: 109%
